Assay results taken from US20230406951A1 (Pfizer, published 2023).
“And” between values parts separate entries of the source, which are not always exact repeats. Equal entries are not always repeated. One block for each binder: values may come before it.

Legend:
human TNFR2 [1] = biological target: T1, human TNFR2 (human, UniProt P20333 23-461); assay: binding to human TNFR2 CHO cells, IgG format
T1 construct: expressed on the surface of CHO cells; also called HuTNFR2; TNFRSF1B
T1 sequence: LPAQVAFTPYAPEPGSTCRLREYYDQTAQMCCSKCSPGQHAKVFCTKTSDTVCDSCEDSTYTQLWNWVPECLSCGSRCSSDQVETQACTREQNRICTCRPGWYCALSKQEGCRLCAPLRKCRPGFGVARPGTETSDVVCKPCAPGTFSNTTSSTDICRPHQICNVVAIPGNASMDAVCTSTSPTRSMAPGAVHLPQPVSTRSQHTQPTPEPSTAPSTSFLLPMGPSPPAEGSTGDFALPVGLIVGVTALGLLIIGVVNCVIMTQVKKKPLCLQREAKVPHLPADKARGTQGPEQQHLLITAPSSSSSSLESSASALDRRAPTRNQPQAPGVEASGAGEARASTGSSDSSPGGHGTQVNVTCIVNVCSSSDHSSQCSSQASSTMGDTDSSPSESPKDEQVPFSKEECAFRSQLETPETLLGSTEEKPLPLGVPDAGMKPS

human TNFR2 [2] = biological target: T1, human TNFR2; assay: binding to human TNFR2 CHO cells, IgG format; IgG format, light chain Q89L, Y91K
human TNFR2 [3] = biological target: T1, human TNFR2; assay: binding to human TNFR2 CHO cells, IgG format; IgG format, light chain Q89L
biotinylated cyno TNFR2 = biological target: T2, biotinylated cyno TNFR2 (cynomolgus monkey, UniProt P20333 23-257 (human entry), limits assumed, biotinylated); assay: SPR (BIAcore), biotinylated TNFR2 captured on streptavidin chip, TetraFab as analyte (apparent affinity)
T2 construct: Soluble biotinylated protein captured on a streptavidin chip for SPR; also called CyTNFR2
T2 chain: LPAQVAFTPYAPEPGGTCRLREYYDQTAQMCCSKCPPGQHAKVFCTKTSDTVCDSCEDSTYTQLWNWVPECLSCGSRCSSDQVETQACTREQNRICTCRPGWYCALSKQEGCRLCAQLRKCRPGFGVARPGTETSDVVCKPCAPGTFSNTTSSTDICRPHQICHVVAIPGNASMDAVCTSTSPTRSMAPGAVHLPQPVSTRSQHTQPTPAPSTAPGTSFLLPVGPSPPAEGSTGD
Method: (§1) Increased avidity was confirmed by Surface Plasmon Resonance (SPR) using a BIAcore. Briefly, biotinylated human- or cyno-TNFR2 was captured on the surface of a streptavidin chip for 60 seconds at a flow rate of […]. […] The dissociation phase was then initiated with running buffer (HBS-EP+) injected for 600 seconds at […]. Data were analyzed using the Biacore Evaluation Software.

biotinylated human TNFR2 [4] = biological target: T3, biotinylated human TNFR2 (human, UniProt P20333 23-257, biotinylated); assay: as above
T3 construct: Soluble biotinylated protein captured on a streptavidin chip for SPR; also called HuTNFR2
T3 sequence: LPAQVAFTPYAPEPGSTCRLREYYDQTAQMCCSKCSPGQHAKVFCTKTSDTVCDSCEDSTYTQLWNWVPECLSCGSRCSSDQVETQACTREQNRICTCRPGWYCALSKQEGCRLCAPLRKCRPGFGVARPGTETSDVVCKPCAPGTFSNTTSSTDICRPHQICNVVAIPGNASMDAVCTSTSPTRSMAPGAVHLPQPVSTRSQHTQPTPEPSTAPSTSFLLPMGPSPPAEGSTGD
Method: as §1

human TNFR2 [5] = biological target: T4, human TNFR2 (human, UniProt P20333 23-461); assay: cell-based or functional assay
T4 sequence: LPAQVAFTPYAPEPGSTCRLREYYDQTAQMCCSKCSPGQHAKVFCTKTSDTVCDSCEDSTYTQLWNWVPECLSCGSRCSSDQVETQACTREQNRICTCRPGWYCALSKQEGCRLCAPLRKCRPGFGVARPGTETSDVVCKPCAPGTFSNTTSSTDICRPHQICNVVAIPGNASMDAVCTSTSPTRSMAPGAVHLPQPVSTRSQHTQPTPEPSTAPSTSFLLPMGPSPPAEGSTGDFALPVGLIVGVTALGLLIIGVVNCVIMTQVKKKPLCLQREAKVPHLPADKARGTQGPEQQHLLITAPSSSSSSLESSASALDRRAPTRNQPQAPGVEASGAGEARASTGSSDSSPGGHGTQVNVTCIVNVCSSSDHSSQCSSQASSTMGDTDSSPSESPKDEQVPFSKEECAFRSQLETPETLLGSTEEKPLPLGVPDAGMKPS

cynomolgus monkey TNFR2 [6] = biological target: T5, cynomolgus monkey TNFR2 (cynomolgus monkey, UniProt P20333 23-461 (human entry)); assay: cell-based or functional assay
T5 chain: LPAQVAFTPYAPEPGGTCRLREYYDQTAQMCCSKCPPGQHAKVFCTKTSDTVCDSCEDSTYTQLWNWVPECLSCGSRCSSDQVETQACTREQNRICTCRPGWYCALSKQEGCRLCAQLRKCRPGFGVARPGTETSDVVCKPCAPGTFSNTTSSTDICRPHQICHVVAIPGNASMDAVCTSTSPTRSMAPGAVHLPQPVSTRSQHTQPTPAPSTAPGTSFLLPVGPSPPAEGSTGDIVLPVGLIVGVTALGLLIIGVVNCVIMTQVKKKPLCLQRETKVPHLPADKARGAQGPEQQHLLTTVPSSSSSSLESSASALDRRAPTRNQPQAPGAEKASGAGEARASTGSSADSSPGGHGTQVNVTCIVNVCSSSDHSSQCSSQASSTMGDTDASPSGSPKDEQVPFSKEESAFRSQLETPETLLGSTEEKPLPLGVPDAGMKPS

human TNFR2 [7] = biological target: T4, human TNFR2; assay: cell-based or functional assay; remark: listed apart in the source
cynomolgus monkey TNFR2 [8] = biological target: T5, cynomolgus monkey TNFR2; assay: cell-based or functional assay
human TNFR2 [9] = biological target: T4, human TNFR2; assay: cell-based or functional assay; remark: listed apart in the source
cynomolgus monkey TNFR2 [10] = biological target: T5, cynomolgus monkey TNFR2; assay: cell-based or functional assay
biotinylated human TNFR2 [11] = biological target: T3, biotinylated human TNFR2; assay: SPR (BIAcore), apparent affinity
Method: as §1

human TNFR2 [12] = biological target: T4, human TNFR2; assay: cell-based or functional assay; remark: listed apart in the source
cynomolgus monkey TNFR2 [13] = biological target: T5, cynomolgus monkey TNFR2; assay: cell-based or functional assay
human TNFR2 [14] = biological target: T4, human TNFR2; assay: cell-based or functional assay; remark: listed apart in the source
human TNFR2 [15] = biological target: T4, human TNFR2; assay: binding to CHO cells over-expressing human TNFR2

EC50 (human TNFR2 [1]): 0.67 nM
B1: GBT-TNFR2-1765 (antibody, human IgG2, kappa, V domains shown)
VH: QVQLVQSGAEVKKPGASVKVSCKVSGFSFPSSGVDWVRQAPGQGLEWLGVTWGVGSTHYNQKFQGRVTITKDTSKSTVYMELSSLRSEDTAVYYCASGEWDEGFVYWGQGTLVTVSS
VL: DIQLTQSPSFLSASVGDRVTITCKASQNVGTAVAWYQQKPGKAPKLLIYAASTLQSGVPSRFSGSGSGTEFTLTISSLQPEDFATYYCQQYSSYPLTFGGGTKVEIKR

EC50 (human TNFR2 [2]): 1.63 nM
B2: IgG 2204 (antibody, V domains shown)
VH: QVQLVQSGAEVKKPGASVKVSCKVSGFSFPSSGVDWVRQAPGQGLEWLGVTWGVGSTHYNQKFQGRVTITKDTSKSTVYMELSSLRSEDTAVYYCASGEWDEGFVYWGQGTLVTVSS
VL: DIQLTQSPSFLSASVGDRVTITCKASQNVGTAVAWYQQKPGKAPKLLIYAASTLQSGVPSRFSGSGSGTEFTLTISSLQPEDFATYYCLQKSSYPLTFGGGTKVEIKR
notes: IgG

EC50 (human TNFR2 [3]): 0.43 nM
B3: IgG2205 (antibody, V domains shown)
VH: QVQLVQSGAEVKKPGASVKVSCKVSGFSFPSSGVDWVRQAPGQGLEWLGVTWGVGSTHYNQKFQGRVTITKDTSKSTVYMELSSLRSEDTAVYYCASGEWDEGFVYWGQGTLVTVSS
VL: DIQLTQSPSFLSASVGDRVTITCKASQNVGTAVAWYQQKPGKAPKLLIYAASTLQSGVPSRFSGSGSGTEFTLTISSLQPEDFATYYCLQYSSYPLTFGGGTKVEIKR
notes: IgG

Kd (biotinylated cyno TNFR2): 0.61 nM
koff (biotinylated cyno TNFR2): 0.00706 s⁻¹
kon (biotinylated cyno TNFR2): 1.15e+07 M⁻¹ s⁻¹
Kd (biotinylated human TNFR2 [4]): 0.06 nM
koff (biotinylated human TNFR2 [4]): 0.000473 s⁻¹
kon (biotinylated human TNFR2 [4]): 8.1e+06 M⁻¹ s⁻¹
Human EC50, OX-40 up-regulation on splenic Treg, donor BioIVT #BRH1515663 (human TNFR2 [5]): 0.018 nM
Human EC50, OX-40 up-regulation on splenic Treg, donor ZenBio #072518 (human TNFR2 [5]): 0.047 nM
Cyno EC50, OX-40 up-regulation on splenic Treg, donor 17-5215 (cynomolgus monkey TNFR2 [6]): 1.75 nM
Cyno EC50, OX-40 up-regulation on splenic Treg, donor #31 (cynomolgus monkey TNFR2 [6]): 0.799 nM
Cyno EC50, OX-40 up-regulation on splenic Treg, donor #34 (cynomolgus monkey TNFR2 [6]): 0.905 nM
Cyno EC50, OX-40 up-regulation on splenic Treg, donor TA1 (cynomolgus monkey TNFR2 [6]): 0.642 nM
Cyno EC50, OX-40 up-regulation on splenic Treg, donor TA2 (cynomolgus monkey TNFR2 [6]): 0.692 nM
fold improvement of EC50 for up-regulation of ICAM-1 against 854 and 1765 (human TNFR2 [7]): 10 fold
fold improvement of Jurkat EC50 compared to both 854 and 1765 (human TNFR2 [7]): > 10 fold
mean EC50 for IKBa in human expanded Tregs (human TNFR2 [7]): 0.026 nM
mean EC50 for OX-40 upregulation on human splenic Treg (human TNFR2 [7]): 0.033 nM
loss of potency in cyno versus human, IKBa degradation (cynomolgus monkey TNFR2 [8]): > 5 fold
mean EC50 for IKBa in cyno expanded Tregs (cynomolgus monkey TNFR2 [8]): 0.145 nM
mean EC50 for upregulation of OX-40 in cyno splenic Treg (cynomolgus monkey TNFR2 [8]): 0.958 nM
Human EC50, IKBa degradation in expanded Tregs, donor Human D23 (human TNFR2 [9]): 0.0478 nM
Human EC50, IKBa degradation in expanded Tregs, donor Human D24 (human TNFR2 [9]): 0.00575 nM
Human EC50, IKBa degradation in expanded Tregs, donor Human D28 (human TNFR2 [9]): 0.02 nM and 0.0179 nM
Human EC50, IKBa degradation in expanded Tregs, donor Human D32 (human TNFR2 [9]): 0.0373 nM
Cyno EC50, IKBa degradation in expanded Tregs, donor Cyno3 (cynomolgus monkey TNFR2 [10]): 2.25 nM
Cyno EC50, IKBa degradation in expanded Tregs, donor Cyno 16-477 (cynomolgus monkey TNFR2 [10]): 0.118 nM
Cyno EC50, IKBa degradation in expanded Tregs, donor Cyno 16-873 (cynomolgus monkey TNFR2 [10]): 0.0538 nM
Cyno EC50, IKBa degradation in expanded Tregs, donor Cyno 18-7469 (cynomolgus monkey TNFR2 [10]): 0.4 nM
Cyno EC50, IKBa degradation in expanded Tregs, donor Cyno 18-7473 (cynomolgus monkey TNFR2 [10]): 0.155 nM
fold improvement of KD compared to its IgG counterparts 854 or 1765 (biotinylated human TNFR2 [11]): 5 fold
EC50 HuPBMC (ICAM-1 up-regulation) (human TNFR2 [12]): 0.116 µg/mL
EC50 CyPBMC (CD25+/Ki67+ of CD4+ cells) (cynomolgus monkey TNFR2 [13]): 5.95 µg/mL
EC50 Jurkat (human TNFR2 [14]): 0.037 µg/mL
B4: TetraFab 2053 (antibody, human IgG1, kappa)
heavy: QVQLVQSGAEVKKPGASVKVSCKVSGFSFPSSGVDWVRQAPGQGLEWLGVTWGVGSTHYNQKFQGRVTITKDTSKSTVYMELSSLRSEDTAVYYCASGEWDEGFVYWGQGTLVTVSSASTKGPSVFPLAPSSKSTSGGTAALGCLVKDYFPEPVTVSWNSGALTSGVHTFPAVLQSSGLYSLSSVVTVPSSSLGTQTYICNVNHKPSNTKVDKKVEPKSCGGGGSQVQLVQSGAEVKKPGASVKVSCKVSGFSFPSSGVDWVRQAPGQGLEWLGVTWGVGSTHYNQKFQGRVTITKDTSKSTVYMELSSLRSEDTAVYYCASGEWDEGFVYWGQGTLVTVSSASTKGPSVFPLAPSSKSTSGGTAALGCLVKDYFPEPVTVSWNSGALTSGVHTFPAVLQSSGLYSLSSVVTVPSSSLGTQTYICNVNHKPSNTKVDKKVEPKSCDKTHTCPPCPAPEAAGAPSVFLFPPKPKDTLMISRTPEVTCVVVDVSHEDPEVKFNWYVDGVEVHNAKTKPREEQYNSTYRVVSVLTVLHQDWLNGKEYKCKVSNKALPAPIEKTISKAKGQPREPQVYTLPPSREEMTKNQVSLTCLVKGFYPSDIAVEWESNGQPENNYKTTPPVLDSDGSFFLYSKLTVDKSRWQQGNVFSCSVMHEALHNHYTQKSLSLSPGK
light: DIQLTQSPSFLSASVGDRVTITCKASQNVGTAVAWYQQKPGKAPKLLIYAASTLQSGVPSRFSGSGSGTEFTLTISSLQPEDFATYYCQQYSSYPLTFGGGTKVEIKRTVAAPSVFIFPPSDEQLKSGVTASVVCLLNNFYPREAKVQWKVDNALQSGNSQESVTEQDSKDSTYSLSSTLTLSKADYEKHKVYACEVTHQGLSSPVTKSFNRGEC
notes: also called TF2053

EC50 (human TNFR2 [15]): 0.0698 µg/mL
B5: clone 825 (antibody, V domains shown)
VH: QVQLKESGPGLVAPSQSLSITCTVSGFSFPSSGVDWVRQSPGKGLEWLGVTWGVGSTHYNSALKSRLSISKDNSKSQVFLKMNSLQTEDTAIYYCASGEWDEGFVYWGQGTLVTVSA
VL: DIVMTQSQKFMSTTVGDRVSITCKASQNVGTAVAWYQQKPGQSPKLLIYSASNRYTGVPDRFTGSGSGTDFTLTISNMQSEDLADYFCQQYSSYPLTFGGGTKLEIK
notes: human IgG1 (L234A, L235A, G237A, EU), kappa
